In the supplement of paper PMC12783771:
± gives the standard deviation of the averaged measurements.

B1: library; numbered along this chain (parent)
chain: MNIQIGELAKRTACPVVTIRFYEQEGLLPPPGRSRGNFRLYGEEHVERLQFIRHCRSLDMPLSDVRTLLSYRKRPDQDCGEVNMLLDEHIRQVESRIGALLELKHHLVELREACSGARPAQSCGILQGLSDCVCDTRGTTAHPSD

How the values were obtained:
[1] = variants of: B1; assay: sfGFP reporter fluorescence (15 h) (µM FITC); higher = higher leak; conditions: library round: Round 0; ligand: none
Protocol: (§1)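 Cell-free (BL21 Star DE3 extract, PANOx-SP) biosensing: 1 µL Echo-assembled reactions with linear PbrR variant templates (5 nM) and pPbrR-sfGFP reporter, with 1 µM Pb (lead chloride), 30 µM Zn (zinc acetate) or no ligand; endpoint sfGFP fluorescence after 15 h at 30 °C, calibrated as µM FITC. Round 0 library (alanine scan, site saturation, combinatorial) of PbrR from Cupriavidus metallidurans; 2 biological replicates.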

[2] = variants of: B1; assay: sfGFP reporter fluorescence (15 h) (µM FITC); higher = stronger transcriptional activation; conditions: library round: Round 0
Protocol: as §1

Variant | sfGFP reporter fluorescence [1] | sfGFP reporter fluorescence ([2]; ligand: 1 µM Pb) | sfGFP reporter fluorescence ([2]; ligand: 30 µM Zn)
L27G | 0.0608 ± 0.001 | 0.0597 ± 0.0015 | 0.0649 ± 0.0036
L27K | 0.064 ± 0.0013 | 0.06084 ± 0.00052 | 0.0614 ± 0.0018
L27D | 0.0627 ± 0.0015 | 0.0603 ± 0.0018 | 0.0574 ± 0.0018
L27R | 0.0656 ± 0.0026 | 0.0658 ± 0.0013 | 0.0665 ± 0.00078
L27T | 0.0621 ± 0.0013 | 0.06029 ± 0.00026 | 0.0594 ± 0.0026
L27A | 0.0632 ± 0.00078 | 0.05827 ± 0.00052 | 0.0733
L27S | 0.0623 ± 0.00052 | 0.0621 ± 0.00078 | 0.0647 ± 0.0029
L27I | 0.0596 ± 0.00078 | 0.0803 ± 0.0015 | 0.555 ± 0.033
L27N | 0.06322 ± 0.00026 | 0.0616 ± 0.0031 | 0.0601
L27W | 0.0616 ± 0.0036 | 0.0623 | 0.0638
L27E | 0.0603 ± 0.0013 | 0.0616 ± 0.0015 | 0.0577 ± 0.00078
L27P | 0.0607 ± 0.0034 | 0.0612 ± 0.001 | 0.0656 ± 0.0026
L27Y | 0.066 | 0.0792 ± 0.0021 | 0.254 ± 0.011
T18A | 0.0612 ± 0.001 | 0.0612 ± 0.0026 | 0.188 ± 0.014
V16M | 0.0647 ± 0.0029 | 0.099 ± 0.0052 | 0.9379 ± 0.0042
V16Y | 0.0629 ± 0.00078 | 0.0678 ± 0.001 | 0.119 ± 0.0018
V16D | 0.0649 ± 0.0015 | 0.0975 ± 0.0026 | 0.9703 ± 0.0039
V16S | 0.06707 ± 0.00052 | 0.1145 ± 0.00026 | 1.22 ± 0.028
V16T | 0.0641 ± 0.0031 | 0.0982 ± 0.0021 | 1.14 ± 0.09
V16H | 0.06542 ± 0.00026 | 0.109 ± 0.0086 | 0.447 ± 0.0096
V16I | 0.05864 ± 0.00052 | 0.0768 ± 0.0018 | 0.981 ± 0.061
V16N | 0.0643 ± 0.0013 | 0.08686 ± 0.00052 | 0.487 ± 0.011
V16C | 0.0634 | 0.0861 ± 0.0021 | 0.341 ± 0.081

Variant | sfGFP reporter fluorescence [1] | sfGFP reporter fluorescence ([2]; ligand: 1 µM Pb) | sfGFP reporter fluorescence ([2]; ligand: 30 µM Zn)
V16Q | 0.0663 ± 0.0031 | 0.112 ± 0.0083 | 1.425 ± 0.0039
V16R | 0.0671 ± 0.001 | 0.132 ± 0.0057 | 2.03 ± 0.3
V16E | 0.06341 ± 0.00052 | 0.0762 ± 0.001 | 0.986 ± 0.046
V16L | 0.06249 ± 0.00026 | 0.0825 ± 0.0021 | 0.56 ± 0.022
V16W | 0.0599 ± 0.0018 | 0.0623 ± 0.0021 | 0.064 ± 0.00078
V16A | 0.059 ± 0.0015 | 0.0729 ± 0.0015 | 1.06 ± 0.1
V16G | 0.0594 ± 0.0026 | 0.0812 ± 0.0018 | 0.493 ± 0.014
V16K | 0.0641 ± 0.0021 | 0.115 ± 0.0021 | 1.93 ± 0.075
V16P | 0.06102 ± 0.00026 | 0.08796 ± 0.00052 | 1.53 ± 0.031
V16F | 0.0623 ± 0.0015 | 0.0641 | 0.107 ± 0.0029
G32A | 0.0614 ± 0.0013 | 0.0586 ± 0.0052 | 0.467 ± 0.086
F21H | 0.0596 ± 0.0018 | 0.0629 ± 0.0023 | 0.276 ± 0.0091
F21Y | 0.06102 ± 0.00026 | 0.0755 ± 0.0015 | 0.819 ± 0.015
F21M | 0.0599 ± 0.0013 | 0.0619 ± 0.0021 | 0.09 ± 0.0086
F21N | 0.0605 ± 0.0015 | 0.0605 ± 0.0021 | 0.06267 ± 0.00052
F21P | 0.0619 | 0.0603 ± 0.0018 | 0.0629 ± 0.0018
F21I | 0.0597 | 0.0575 ± 0.0031 | 0.0607 ± 0.0018
F21R | 0.0645 | 0.06212 ± 0.00026 | 0.0685 ± 0.0021
F21V | 0.0625 ± 0.00078 | 0.0608 | 0.0669 ± 0.00078
F21L | 0.0612 ± 0.001 | 0.0581 ± 0.0013 | 0.0696 ± 0.001
F21Q | 0.0605 | 0.05827 ± 0.00052 | 0.0625 ± 0.00078
F21E | 0.0596 ± 0.00078 | 0.06175 ± 0.00026 | 0.0608 ± 0.0015
F21K | 0.0607 ± 0.0013 | 0.06157 ± 0.00052 | 0.0641

Variant | sfGFP reporter fluorescence [1] | sfGFP reporter fluorescence ([2]; ligand: 1 µM Pb) | sfGFP reporter fluorescence ([2]; ligand: 30 µM Zn)
F21G | 0.059 | 0.0577 ± 0.0023 | 0.0588 ± 0.00078
F21S | 0.06341 ± 0.00052 | 0.0608 ± 0.001 | 0.06304 ± 0.00052
F21D | 0.0616 ± 0.0015 | 0.0614 ± 0.0013 | 0.0599 ± 0.00078
F21T | 0.0601 ± 0.0015 | 0.06121 ± 0.00052 | 0.06066 ± 0.00026
F21C | 0.0599 ± 0.0029 | 0.0597 | 0.0583 ± 0.001
F21A | 0.059 | 0.0541 ± 0.0013 | 0.0673 ± 0.0013
F21W | 0.0702 ± 0.0013 | 0.124 ± 0.0031 | 0.945 ± 0.029
P15M | 0.0625 ± 0.0018 | 0.0795 ± 0.001 | 0.637 ± 0.02
P15K | 0.0634 | 0.0958 ± 0.01 | 1.34 ± 0.047
P15T | 0.0632 ± 0.00078 | 0.1006 ± 0.00078 | 0.859 ± 0.058
P15V | 0.0757 ± 0.00078 | 0.07385 ± 0.00026 | 0.212 ± 0.018
P15R | 0.06341 ± 0.00052 | 0.0876 ± 0.0021 | 1.04 ± 0.064
P15I | 0.06047 ± 0.00052 | 0.0612 ± 0.0015 | 0.288 ± 0.026
P15Q | 0.0654 ± 0.00078 | 0.0903 ± 0.0029 | 0.9395 ± 0.0039
P15L | 0.0667 | 0.0938 ± 0.0036 | 1.06 ± 0.078
P15S | 0.0621 ± 0.0029 | 0.0883 ± 0.0052 | 0.802 ± 0.01
P15W | 0.061 ± 0.0013 | 0.06139 ± 0.00026 | 0.06634 ± 0.00052
P15N | 0.0629 ± 0.0034 | 0.0859 ± 0.0018 | 0.885 ± 0.022
P15Y | 0.0652 ± 0.0021 | 0.0684 ± 0.0034 | 0.368 ± 0.0021
E25A | 0.0634 ± 0.0036 | 0.0823 ± 0.0029 | 0.611 ± 0.041
Q24A | 0.0559 ± 0.0029 | 0.05827 ± 0.00052 | 0.534 ± 0.052
G26A | 0.06304 ± 0.00052 | 0.0724 ± 0.0023 | 0.512 ± 0.033
R35A | 0.0658 ± 0.0029 | 0.08833 ± 0.00052 | 2.06 ± 0.079

Variant | sfGFP reporter fluorescence [1] | sfGFP reporter fluorescence ([2]; ligand: 1 µM Pb) | sfGFP reporter fluorescence ([2]; ligand: 30 µM Zn)
P29A | 0.0607 ± 0.0044 | 0.0704 ± 0.0031 | 0.455 ± 0.039
L28H | 0.06249 ± 0.00026 | 0.0625 ± 0.0013 | 0.0563 ± 0.0034
L28C | 0.06304 ± 0.00052 | 0.06487 ± 0.00052 | 0.14 ± 0.0052
L28Y | 0.0621 ± 0.00078 | 0.0627 ± 0.0015 | 0.12 ± 0.0052
L28A | 0.06322 ± 0.00026 | 0.0603 ± 0.00078 | 0.0695 ± 0.0013
L28W | 0.061 ± 0.0018 | 0.0821 ± 0.001 | 0.878 ± 0.019
L28I | 0.0588 ± 0.00078 | 0.0841 ± 0.0013 | 0.908 ± 0.066
L28E | 0.06304 ± 0.00052 | 0.0649 ± 0.0015 | 0.0656
L28Q | 0.0638 | 0.0619 ± 0.001 | 0.05901 ± 0.00052
L28G | 0.05882 ± 0.00026 | 0.0581 ± 0.00078 | 0.059 ± 0.001
L28N | 0.06285 ± 0.00026 | 0.0592 ± 0.00078 | 0.0605 ± 0.0026
L28V | 0.06175 ± 0.00026 | 0.0819 ± 0.0013 | 0.5124 ± 0.0026
L28T | 0.0647 ± 0.0013 | 0.0691 ± 0.0013 | 0.166 ± 0.031
L28R | 0.0629 ± 0.0013 | 0.063 ± 0.0026 | 0.0588 ± 0.0029
L28P | 0.06102 ± 0.00026 | 0.06047 ± 0.00052 | 0.0619 ± 0.001
L28D | 0.06194 ± 0.00052 | 0.0632 ± 0.00078 | 0.06359 ± 0.00026
L28M | 0.0616 | 0.077 ± 0.0015 | 0.618 ± 0.023
L28S | 0.0627 ± 0.0015 | 0.0632 ± 0.0023 | 0.0715
L28F | 0.0603 ± 0.00078 | 0.0784 ± 0.0015 | 0.599 ± 0.018
L28K | 0.06304 ± 0.00052 | 0.0625 ± 0.0018 | 0.05809 ± 0.00026
